Measurements from US10905770B2, “Topical delivery of therapeutic agents using cell-penetrating peptides for the treatment of age-related macular degeneration and other eye diseases” (priority 2017, dated 2021).
Entries after “also recorded” stand apart in the source; their conditions may differ.

Experiments:
[1] = Description: (§1) Lutein was dissolved in DMSO (10 mg/mL) and titrated into water. […] As a proxy for topical delivery into the eye by eye drop, 50 μL of lutein plus hexa-arginine (SEQ ID NO: 258) or lutein alone was applied to one side of the outer shell membrane of a chicken egg, and the material that crossed the membrane in water was collected after 2 minutes. The level of lutein was measured by absorbance. The experiment was conducted three times (n=3).
Zeaxanthin was dissolved in DMF (10 mg/mL) and titrated into water. […] As a proxy for topical delivery into the eye by eye drop, 50 μL of zeaxanthin plus hexa-arginine (SEQ ID NO: 258) or zeaxanthin alone was applied to one side of the outer shell membrane of a chicken egg, and the material that crossed the membrane in water was collected after 2 minutes. The level of zeaxanthin was measured by absorbance. The experiment was conducted three times (n=3).
as §1, with “into water, zeaxanthin was dissolved in DMF (10 mg/mL) and titrated into water, and then lutein and zeaxanthin were mixed in a 1:1 ratio.” for “into water.”, “lutein and zeaxanthin” for “lutein”, “NO: 258),” for “NO: 258)”, “lutein and zeaxanthin without CPP,” for “lutein alone”
Dexamethasone was dissolved in DMSO and titrated into water. […] As a proxy for topical delivery into the eye by eye drop, 50 μL of dexamethasone plus hexa-arginine (SEQ ID NO: 258) or dexamethasone alone was applied to one side of the outer shell membrane of a chicken egg, and the material that crossed the membrane in water was collected after 2 minutes. The presence of dexamethasone was detected by electrospray mass spectroscopy.
Tacrolimus was dissolved in DMSO and titrated into water. […] As a proxy for topical delivery into the eye by eye drop, 50 μL of tacrolimus plus hexa-arginine (SEQ ID NO: 258) or tacrolimus alone was applied to one side of the outer shell membrane of a chicken egg, and the material that crossed the membrane in water was collected after 2 minutes. The presence of tacrolimus was detected by electrospray mass spectroscopy.
Adalimumab was fluorescently tagged and purified. […] As a proxy for topical delivery into the eye by eye drop, 50 μL of adalimumab plus hexa-arginine (SEQ ID NO: 258) or adalimumab alone was applied to one side of the outer shell membrane of a chicken egg, and the material that crossed the membrane in PBS was collected after 2 minutes. The level of adalimumab was measured by fluorescence. The experiment was conducted three times (n=3).
As a proxy for topical delivery into the eye by eye drop, 50 μL of glucose plus hexa-arginine (SEQ ID NO: 258) or glucose alone was applied to one side of the outer shell membrane of a chicken egg, and the material that crossed the membrane in water was collected after 2 minutes. The presence of glucose was detected by electrospray mass spectroscopy.
As a proxy for topical delivery into the eye by eye drop, 50 μL of BDNF plus hexa-arginine (SEQ ID NO: 258) or BDNF alone was applied to one side of the outer shell membrane of a chicken egg, and the material that crossed the membrane in PBS was collected after 2 minutes. The level of BDNF was measured by ELISA. The experiment was conducted three times (n=3).
As a proxy for topical delivery into the eye by eye drop, 50 μL of GDNF plus hexa-arginine (SEQ ID NO: 258) or GDNF alone was applied to one side of the outer shell membrane of a chicken egg, and the material that crossed the membrane in PBS was collected after 2 minutes. The level of GDNF was measured by ELISA.

geographic atrophy (GA) = conditions: vs placebo, cited from earlier work
rat eye in vivo = assay: CPP-assisted delivery into rat eye in vivo
Description: An eye drop of 50 μL of bevacizumab plus hexa-arginine (SEQ ID NO: 258) was applied topically to the front of one of the eyes of a live rat, and then the rat was sacrificed 60 minutes after topical application.

In the case of `CC1=C(/C=C/C(C)=C/C=C/C(C)=C/C=C/C=C(C)/C=C/C=C(C)/C=C/C2=C(C)C[C@@H](O)CC2(C)C)C(C)(C)C[C@H](O)C1` [zeaxanthin], the “crossing of the egg shell membrane” value [1] is reported as “a very small amount”.

In the case of `C=CC[C@@H]1/C=C(\C)C[C@H](C)C[C@H](OC)[C@H]2O[C@@](O)(C(=O)C(=O)N3CCCC[C@H]3C(=O)O[C@H](/C(C)=C/[C@@H]3CC[C@@H](O)[C@H](OC)C3)[C@H](C)[C@@H](O)CC1=O)[C@H](C)C[C@@H]2OC` [tacrolimus, reference compound], the “crossing of the egg shell membrane (electrospray mass spectroscopy)” value [1] is reported as “did not cross”.

For “lampalizumab: antigen-binding fragment (Fab) of a humanized monoclonal antibody targeting CFD”, the “reduction in the rate of GA enlargement, and hence the area of GA, in the injected eye” value (geographic atrophy (GA); monthly intravitreal injections of 10 mg for 18 months, fundus autofluorescence) is given as “about 20%” and the “reduction in the GA growth rate, and hence the area of GA” value (geographic atrophy (GA); subgroup positive for CFI mutations, monthly intravitreal 10 mg for 18 months) is given as “about 44%”.

For `C[C@@H]1C[C@H]2[C@@H]3CCC4=CC(=O)C=C[C@]4(C)[C@@]3(F)[C@@H](O)C[C@]2(C)[C@@]1(O)C(=O)CO` [dexamethasone, reference compound], the “crossing of the egg shell membrane (electrospray mass spectroscopy)” value [1] was “did not cross”.

In the case of bevacizumab: anti-VEGF antibody, the “delivery into the posterior segment (the vitreous and the retina) of the treated eye” value (rat eye in vivo; 50 μL eye drop, bevacizumab 25 mg/mL plus hexa-arginine 5 mg/mL, 60 minutes, human IgG ELISA) is reported as “entered; also recorded: delivered”, the “level in the bloodstream” value (rat eye in vivo; 60 minutes after topical application) is reported as “not detected” and the “level in the fellow untreated eye” value (rat eye in vivo; 60 minutes after topical application to the other eye, human IgG ELISA) is reported as “not detected”.

In the case of adalimumab, the “amount that crossed the membrane with hexa-arginine compared with without” value [1] is reported as “markedly greater” and the “fluorescence of material that crossed the egg shell membrane” value [1] is reported as 1359±3.

With `CC1=C[C@H](O)CC(C)(C)[C@H]1/C=C/C(C)=C/C=C/C(C)=C/C=C/C=C(C)/C=C/C=C(C)/C=C/C1=C(C)C[C@@H](O)CC1(C)C` [lutein] the “crossing of the egg shell membrane” value [1] was “did not cross”.

B1: GDNF: glial cell-derived neurotrophic factor (protein, UniProt P39905 78-211, looked up)
Glial cell line-derived …: SPDKQMAVLPRRERNRQAAAANPENSRGKGRRGQRGKNRGCVLTAIHLNVTDLGLGYETKEELIFRYCSGSCDAAETTYDKILKNLSRNRRLVSDKVGQACCRPIAFDDDLSFLDDNLVYHILRKHSAKRCGCI
For B1, the “crossing of the egg shell membrane” value [1] was “did not cross”.

B2: BDNF: brain-derived neurotrophic factor (protein, UniProt P23560 19-247, looked up)
Neurotrophic factor BDNF …: APMKEANIRGQGGLAYPGVRTHGTLESVNGPKAGSRGLTSLADTFEHVIEELLDEDQKVRPNEENNKDADLYTSRVMLSSQVPLEPPLLFLLEEYKNYLDAANMSMRVRRHSDPARRGELSVCDSISEWVTAADKKTAVDMSGGTVTVLEKVPVSKGQLKQYFYETKCNPMGYTKEGCRGIDKRHWNSQCRTTQSYVRALTMDSKKRIGWRFIRIDTSCVCTLTIKRGR
In the case of B2, the “crossing of the egg shell membrane” value [1] is reported as “did not cross”.
